Reference: FireProtDB (doi:10.1021/bi00072a011)
“And” between values parts separate entries of the source, which are not always exact repeats. Equal values may be shown once.

Conditions: Salmonella typhimurium (strain LT2 / SGSC1412 / ATCC 700720); pH 7.8; 25 °C; Urea; CD; Potassium phosphate 10 mM; transition: 3; whole UniProt chain shown

B1: Tryptophan synthase alpha chain wild type, P00929 (protein)
chain: MERYENLFAQLNDRREGAFVPFVTLGDPGIEQSLKIIDTLIDAGADALELGVPFSDPLADGPTIQNANLRAFAAGVTPAQCFEMLALIREKHPTIPIGLLMYANLVFNNGIDAFYARCEQVGVDSVLVADVPVEESAPFRQAALRHNIAPIFICPPNADDDLLRQVASYGRGYTYLLSRSGVTGAENRGALPLHHLIEKLKEYHAAPALQGFGISSPEQVSAAVRAGAAGAISGSAIVKIIEKNLASPKQMLAELRSFVSAMKAASRA
  denaturant m value: 2.7 kcal/mol/M and 1.6 kcal/mol/M
  denaturant midpoint (higher = more stable): 2.75 M and 3.63 M
  unfolding free energy: 7.4 kcal/mol and 5.8 kcal/mol
